Data as given in patent US20140193449A1.

Target: CD8+ splenocytes from LV-huCEA-vaccinated huCEA transgenic mice (T cell receptors of huCEA-specific CTLs)
Assay: flow cytometry, tetramer and anti-CD8 double staining of pooled splenocytes

percent of CD8+ splenocytes stained by the tetramer: 2.1%
Substance: PE-conjugated huCEA/H-2Db tetramer specific for EAQNTTYL (SEQ ID NO: 23) immunogenic peptide (iTag, Beckman Coulter) (from UniProt P01899 25-309) (peptide-MHC)
